According to article PMC8867601, “The TERB1 MYB domain suppresses telomere erosion in meiotic prophase I”:
Positions count from the first letter of the chain named.

Key:
Details in all cases: protein: recombinant; tags: none after Ulp1 cleavage of His-Smt3; label: 32P (T4 PNK)
hTERB1-MYB triple mutant = target: T1, hTERB1-MYB triple mutant (Homo sapiens, UniProt Q8NA31 666-719, A712K;H713D;H716R); assay: EMSA; 2-8 uM protein, 150 nM probe; 50 mM Tris-HCl pH 8.0, 6.5% glycerol, 20 mM NaCl, 5 mM DTT, 150 nM probe, 10 ul, 30 min on ice; 4-20% TBE native gel
T1 sequence: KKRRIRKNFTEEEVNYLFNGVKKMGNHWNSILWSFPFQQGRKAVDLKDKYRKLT

hTERB1-MYB H713D = target: T2, hTERB1-MYB H713D (Homo sapiens, UniProt Q8NA31 666-719, H713D); assay: EMSA; 150 nM probe; 50 mM Tris-HCl pH 8.0, 6.5% glycerol, 20 mM NaCl, 5 mM DTT, 150 nM probe, 10 ul, 30 min on ice; 4-20% TBE native gel
T2 sequence: T1 sequence with K47A, R51H

hTERB1-MYB H716R = target: T3, hTERB1-MYB H716R (Homo sapiens, UniProt Q8NA31 666-719, H716R); assay: as above
T3 sequence: T1 sequence with K47A, D48H

hTERB1-MYB A712K = target: T4, hTERB1-MYB A712K (Homo sapiens, UniProt Q8NA31 666-719, A712K); assay: as above
T4 sequence: T1 sequence with D48H, R51H

Measured: binding result

B1: dsDNA_telo_8-mer (TTAGGG)8 (dsDNA)
DNA 1: TTAGGGTTAGGGTTAGGGTTAGGGTTAGGGTTAGGGTTAGGGTTAGGG
DNA 2: CCCTAACCCTAACCCTAACCCTAACCCTAACCCTAACCCTAACCCTAA
no binding: all assays above
